# According to patent publication US20120115880A1:
# Biological target: p53 (endogenous wild-type p53 of human retinoblastoma cells and human fetal retinal cells) (human) (UniProt P04637)
# Experiment: cell-based or functional assay
# Chain of p53 (endogenous wild-type p53 of human retinoblastoma cells and human fetal retinal cells) (human) (P04637 whole entry): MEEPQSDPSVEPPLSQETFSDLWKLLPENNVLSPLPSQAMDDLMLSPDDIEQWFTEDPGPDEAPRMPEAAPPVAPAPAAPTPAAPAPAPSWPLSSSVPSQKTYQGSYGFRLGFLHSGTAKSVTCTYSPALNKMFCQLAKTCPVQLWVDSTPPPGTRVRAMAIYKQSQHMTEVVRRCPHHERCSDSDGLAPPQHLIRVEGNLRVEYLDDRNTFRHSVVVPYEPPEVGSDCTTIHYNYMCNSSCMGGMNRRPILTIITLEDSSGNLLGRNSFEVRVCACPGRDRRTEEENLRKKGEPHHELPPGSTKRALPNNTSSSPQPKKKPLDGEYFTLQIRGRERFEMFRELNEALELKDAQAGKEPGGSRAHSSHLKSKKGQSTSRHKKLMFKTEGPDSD
substance,measurement,value
MDMX (ectopically expressed from the FLAG-tagged MDMX cDNA),luciferase activity of the p53 reporter construct PG13 in retinoblastoma (Y79) cells,19 fold
